Results as given in PMC11840787, “Detection of an Intermediate in the Unfolding Process of the N-Terminal Domain of TDP-43” (ACS Omega, 2025).

B1: TDP-43 NTD (N-terminal domain of TAR DNA-binding protein 43), noncleaved, 99 residues (domain or fragment, UniProt Q13148 1-77, looked up)
chain: MSEYIRVTEDENDEPIEIPSEDDGTVLLSTVTAQFPGACGLRYRNPVSQCMRGVRLVEGILHAPDAGWGNLVYVVNY
notes: 99 residues in all with the 22-residue N-terminal tag, 11,081.29 Da; A cleaved 78-residue variant was used only for fluorescence kinetics, not for any test of the oligomeric state; also called noncleaved TDP-43 NTD; source: purified

Legend:
[1] = biological target: TDP-43 (oligomer, isodesmic) NTD (Homo sapiens) (UniProt Q13148); conditions: cited from earlier work
[2] = biological target: TDP-43 NTD (Homo sapiens) (UniProt Q13148); conditions: cited from earlier work
[3] = biological target: the molecule itself; test: dynamic light scattering; 0.5 mg/mL (45 uM) protein in 4.5 M urea, DH recorded every 5 s, linear fit extrapolated to 0 s (unfolding intermediate)

Row | Molecule | Kd [1] [µM] | Kd [2] [µM] | stoichiometry N [3]
1 | TDP-43 NTD (from UniProt Q13148) | 40 | 2.4 | –
2 | B1 | – | – | 2
